Results reported in patent publication US20170265788A1.

Key:
p53 (Santa Cruz sc-4246) [1] = target: p53 (Santa Cruz sc-4246) (UniProt P04637); experiment: LSPR fiber tip probe, first of three devices, Langmuir fit
p53 (Santa Cruz sc-4246) [2] = target: p53 (Santa Cruz sc-4246) (UniProt P04637); experiment: LSPR fiber tip probe, third of three devices, Langmuir fit
p53 (Santa Cruz sc-4246) [3] = target: p53 (Santa Cruz sc-4246) (UniProt P04637); experiment: LSPR fiber tip probe, shift vs. concentration, Langmuir fit
p53 (Santa Cruz sc-4246) [4] = target: p53 (Santa Cruz sc-4246) (UniProt P04637); experiment: LSPR fiber tip probe, second of three devices, Langmuir fit
p53 (Santa Cruz sc-4246) [5] = target: p53 (Santa Cruz sc-4246) (UniProt P04637); experiment: LSPR fiber tip probe, antibody on gold nanorod, 1 nM p53 in PBS
p53 (Santa Cruz sc-4246) [6] = target: p53 (Santa Cruz sc-4246) (UniProt P04637); experiment: LSPR fiber tip probe, antibody on gold nanorod, 18.92 nM p53 in PBS
p53 (Santa Cruz sc-4246) [7] = target: p53 (Santa Cruz sc-4246) (UniProt P04637); experiment: LSPR fiber tip probe, shift vs. concentration, Langmuir fit (FIG. 3B)
p53 (Santa Cruz sc-4246) [8] = target: p53 (Santa Cruz sc-4246) (UniProt P04637); experiment: UV-Visible spectroscopy of antibody-coated gold nanorods in solution, resonance shift vs. concentration, Langmuir fit

Chain of UniProt P04637 (P04637 whole entry): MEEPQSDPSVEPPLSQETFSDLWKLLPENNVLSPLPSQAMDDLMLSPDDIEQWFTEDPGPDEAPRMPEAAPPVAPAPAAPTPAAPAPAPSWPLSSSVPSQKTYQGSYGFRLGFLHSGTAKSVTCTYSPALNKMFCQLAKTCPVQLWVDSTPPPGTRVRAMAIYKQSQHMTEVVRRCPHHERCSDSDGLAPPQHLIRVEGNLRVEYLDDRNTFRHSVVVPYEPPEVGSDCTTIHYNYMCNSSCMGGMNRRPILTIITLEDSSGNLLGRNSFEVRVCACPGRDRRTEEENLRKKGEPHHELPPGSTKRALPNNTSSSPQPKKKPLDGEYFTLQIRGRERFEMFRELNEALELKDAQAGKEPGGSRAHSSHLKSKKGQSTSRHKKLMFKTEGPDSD

p53 antibody (Santa Cruz sc-126)
Kd (p53 (Santa Cruz sc-4246) [1]): 5.5 nM | Kd (p53 (Santa Cruz sc-4246) [2]): 7.1 nM | Kd (p53 (Santa Cruz sc-4246) [3]): 5.5 nM | Kd (p53 (Santa Cruz sc-4246) [4]): 4.2 nM | LSPR shift (p53 (Santa Cruz sc-4246) [5]): 0.55 nm | LSPR shift (p53 (Santa Cruz sc-4246) [6]): 5.13 nm | Kd (p53 (Santa Cruz sc-4246) [7]): 5.4 nM | Kd (p53 (Santa Cruz sc-4246) [8]): 4.3 nM
